According to patent publication US10017580B2, “Humanized anti-Tn-MUC1 antibodies and their conjugates” (ADC THERAPEUTICS S.A., priority 2014, dated 2018):
Blank lines part the entries; values can stand above or below the molecule they belong to.

What was measured:
[1] = biological target: Tn-MUC1 (16TR-MUC1-Tn); experiment: Tn-MUC1 binding ELISA (protocol 4); set-up: species or system human; conditions: for Tn-MUC1 binding EC50: ELISA on 16TR-MUC1-Tn coated plate
[2] = system: ZR-75-1 cell line, which expresses Tn-MUC1; experiment: ZR-75-1 cell binding assay by flow cytometry (protocol 6); conditions: for ZR-75-1 cell binding EC50: flow cytometry, live cells
Method: Protocol 6: ZR-75-1 Cell Binding Assay by Flow Cytometry Materials • Wash solution: PBS 0.1% (w/v) sodium azide • Binding buffer: PBS, 10% normal goat serum, 0.1% (w/v) sodium azide) • 96 well U-well microplate Protocol
Exponentially growing cells are suspended by incubation with cell dissociation buffer enzyme-free, Hanks-based (Gibco 13150-016) following the manufacturer's instructions. A cell count/viability is done on a dilution of 10 ul cells+Trypan Blue, 10 ul, with a haemocytomer. The suspension is centrifuged and the cell pellet re-suspended in binding buffer at 3×10^6 per ml. If significant levels of aggregates are present in the cell count, the suspension is filtered to remove aggregates. The cell suspension is dispensed (50 ul/well) in 96 well U-bottom plates and cooled on ice for 10 minutes. Primary antibody (50 ul/well) diluted in binding buffer (typically 1 ug per ml or less) is added to each well and incubated at 4° C. for 1 hour. The microplate is centrifuged 5 min at 300-400 g at 4° C., flicked to remove the supernatant and then the cell pellet re-suspended in 200 uL of wash buffer (PBS, 0.1% sodium azide). Centrifugation and re-suspension are done 4 times in all. After the last centrifugation, cells are re-suspended in 50 uL of binding buffer containing the biotin labelled conjugate 1:250 (kept at −20 C: Biotin-SP-AffiniPure F(ab′)2 Fragment Goat antihuman IgG (H+L); Jackson 109-066-088). Cells are incubated for 1 hour at 4 C, then washed 4 times as before. Cells are resuspended in 50 ul of binding buffer containing Streptavidin, Alexa Fluor® 488 conjugate (Life Technologies s11223) diluted 1:250 and Fixable Viability Dye eFluor® 780 (eBioscience 65-0865) diluted 1:2000, The cells are incubated at 4° C. for 1 hour and then washed 3 times, as above. Cells are then re-suspended in PBS if reading immediately or fixed in 100 ul of paraformaldehyde (2% (w/v) in PBS) and analysed with by flow cytometer (Accuri C6), gating on live cells which have a lower Fixable Viability Dye MFI compared to dead cells.
IgG binding potency to Tn-MUC1 was measured as per protocol 4 and binding to the ZR-75-1 cell line, which expresses Tn-MUC1, was measured as per protocol 6.

[3] = Thermal denaturation assay (protocol 5); assay type: physicochemical; conditions: 50% inactivation temperature, 10 minutes heating, read by antigen-binding ELISA

Tn-MUC1 (16TR-MUC1-Tn), sequence (P15941 141-460 limits assumed): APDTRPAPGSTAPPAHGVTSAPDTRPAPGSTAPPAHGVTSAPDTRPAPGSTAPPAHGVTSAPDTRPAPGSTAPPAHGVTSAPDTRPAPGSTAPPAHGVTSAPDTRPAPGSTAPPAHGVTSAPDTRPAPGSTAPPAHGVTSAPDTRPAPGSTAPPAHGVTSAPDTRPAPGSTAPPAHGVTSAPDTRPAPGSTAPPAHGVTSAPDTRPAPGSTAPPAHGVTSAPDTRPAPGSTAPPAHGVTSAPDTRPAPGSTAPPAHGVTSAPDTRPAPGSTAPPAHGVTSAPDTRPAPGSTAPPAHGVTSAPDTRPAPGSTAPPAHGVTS

- Tn-MUC1 binding EC50 [1]: 0.0198 mg/L
- ZR-75-1 cell binding EC50 [2]: 0.0413 mg/L
B1: Ab6: anti-Tn MUC 1 antibody comprising a VH domain according to SEQ ID NO. 28 and a VL domain according to SEQ ID NO. 33 (antibody, V domains shown)
VH: EVQLVESGAEVKKPGASVEVSCQASGYTFTDHAIHWVRQAPGQGLEWMGHFSPGNTDIKYNDKFKGRVTMTVDRSINTAYMELRRLRSDDTAVYYCKTSTFFFDYWGQGTMVTVSS
VL: DIVMTQSPLSLPVTPGEPASISCKSSQSLLNSGDQKNYLTWYLQKPGQSPQLLIYWASTRESGVPDRFSGSGSGTDFTLKISRVEAEDVGVYYCQNDYSYPLTFGGGTKVEIK
modifications: Synthetic sequence: Humanized antibody heavy chain variable region 5E5RHC9; Synthetic sequence: Humanized antibody light chain variable region 5E5RKB
- TnMUC1 binding potency compared with mouse 5E5 (in words) ([1]; Tn-MUC1 binding assay data): substantially improved over the mouse 5E5

- Tn-MUC1 binding EC50 [1]: 0.02687 mg/L
- ZR-75-1 cell binding EC50 [2]: 0.01842 mg/L
B2: Ab5: anti-Tn MUC 1 antibody comprising a VH domain according to SEQ ID NO. 19 and a VL domain according to SEQ ID NO. 33 (antibody, V domains shown)
VH: EVQLVQSGAEVKKPGESLKISCKISGYIFTDHAIHWVRQMPGKGLEWMGHFSPGNTDIKYNDKFKGQVTLSVDRSINTAYLQWSSLKASDTAIYFCKTSTFFFDYWGQGTRVTVSS
VL: B1 VL
modifications: Synthetic sequence: Humanized antibody heavy chain variable region 5E5RHB10; Synthetic sequence: Humanized antibody light chain variable region 5E5RKB
- Tm [3]: 62.58 °C
- ZR-75-1 binding potency compared with mouse 5E5 (in words) ([2]; flow cytometry EC50 data): substantially improved over the mouse 5E5

- Tn-MUC1 binding EC50 [1]: 0.07549 mg/L
- ZR-75-1 cell binding EC50 [2]: 0.04229 mg/L
B3: Ab4: anti-Tn MUC 1 antibody comprising a VH domain according to SEQ ID NO. 9 and a VL domain according to SEQ ID NO. 33 (antibody, V domains shown)
VH: QVQLVQSGAEVKKTGSSVKVSCKASGYTFTDHAIHWVRQAPGQALEWMGHFSPGNTDIKYNDKFKGRVTLTVDRSMSTAYMELSSLRSEDTAMYYCKTSTFFFDYWGQGTMVTVSS
VL: B1 VL
modifications: Synthetic sequence: Humanized antibody heavy chain variable region 5E5RHA8; Synthetic sequence: Humanized antibody light chain variable region 5E5RKB
- Tm [3]: 65.23 °C
